± gives the uncertainty stated by the source.

The series can be described thus: amyloid nucleation score (Sup35N fusion, yeast selection) (log enrichment); library NNK3; higher = more nucleation; inactive = no reads after selection. The gist of the method:
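After 24 hours of induction with 100 μM copper sulfate, psi-negative yeast expressing peptides of 20 random codons fused to Sup35N were grown for 7 days at 30°C on medium lacking adenine and uracil. Input and output plasmid inserts were sequenced with Illumina, and sequences with under 100 input reads were discarded. Scores for nucleation are the DiMSum log enrichment of output over input reads, centred on the mode score of non-aggregating sequences.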
Turning to LSSETWRRLQIVSIHYGLVV, the amyloid nucleation score entry is “inactive”.

Turning to SVYDNYSLGNRYWERTFWLS, the amyloid nucleation score result is “inactive”.

On to VRFLGFHKCVILAIDYDQFL, for which the amyloid nucleation score was found to be 1.67 ± 0.1.

Turning to MMRSVHFFRCRQTHENLLMC, the amyloid nucleation score was -0.207 ± 0.66.

With LRAFMYLFTYKTWIRTSNGV, the amyloid nucleation score result is “inactive”.

Consider TNKASLFSPAEHIYGKS, for which the amyloid nucleation score result is “inactive”.

Turning to TNRFIFPFLNVTHAVLFIFT, the amyloid nucleation score was found to be 1.02 ± 0.19.

For the substance IGFCKDLVTCRTDYYAQLDR, the amyloid nucleation score entry was “inactive”.

Regarding LRLQRDPCSNSLSVLSCIFC, the amyloid nucleation score came out at 2.63 ± 0.06.

As to KNVTFTCHWTSKSLNMYYEE, the amyloid nucleation score is 0.512 ± 0.29.

Consider NSDMESDSHSNKVVRYLCGP, for which the amyloid nucleation score entry was “inactive”.

The substance LLSADFSFSSVEMKLARLGV showed an amyloid nucleation score of 1.22 ± 0.18.

Take YMRDCYSNSGWNIYRSKRLS: the amyloid nucleation score entry is “inactive”.

With VTVCRHTPILIKKPM, the amyloid nucleation score entry is “inactive”.

As for SGSVNIHSWCGFNSWT, the amyloid nucleation score result was “inactive”.

Consider LKADRVVSFFWLCSFIFTSI, for which the amyloid nucleation score entry is “inactive”.

Consider RWFDTFLCLSR, for which the amyloid nucleation score entry was “inactive”.

Consider KFYAYSEDMVSQYI, for which the amyloid nucleation score entry is “inactive”.

For the substance QSPRDTSPDLRTYCLVA, the amyloid nucleation score entry was “inactive”.

In turn, LATRWRCCSCNAWS displayed an amyloid nucleation score of -0.593 ± 1.1.

In the case of RSGSMWCLSMLVVHLDELTD, the amyloid nucleation score result is “inactive”.

For the substance CLYLAS, the amyloid nucleation score entry was “inactive”.

AFFWCR displayed an amyloid nucleation score of 0.314 ± 0.25.

As for CVSSLIAKMGIVGCDGCYKG, the amyloid nucleation score entry is “inactive”.

Turning to LPVPGTPLKKAVGGIIRGCG, the amyloid nucleation score result is “inactive”.

With YIEWLDFR, the amyloid nucleation score result is “inactive”.

As for CNVRSFRFRCSGSPHSARSS, the amyloid nucleation score entry is “inactive”.

For TCWLVFSSFPINKLVLRNKT, the amyloid nucleation score result is “inactive”.

With LKLTMSFMSQDLIIHVIDCS, the amyloid nucleation score entry is “inactive”.

Turning to ALWYENDCRWLDEVHRARTG, the amyloid nucleation score result was “inactive”.

On to PCNFL, for which the amyloid nucleation score result is “inactive”.

With TPYGRIFWADDIFNSVAICL, the amyloid nucleation score result was “inactive”.

Take VYFRFYNL: the amyloid nucleation score is 1.36 ± 0.073.

On to IYYPIMCAAVAYLLSSRFRC, for which the amyloid nucleation score entry is “inactive”.

For SYFGRLIQSLTRQWTTVARS, the amyloid nucleation score result is “inactive”.

IFKKLSFL: the amyloid nucleation score result was “inactive”.

ILVIYCRVMKCFKCTRMRLC: the amyloid nucleation score result was “inactive”.

Take YALSVLVSRYQWSGWHYLYP: the amyloid nucleation score entry was “inactive”.

Regarding APSYISRFVLLTDMPEAQTL, the amyloid nucleation score result was “inactive”.

With PRLNMGCMLFSEYTYCQMIL, the amyloid nucleation score was 1.1 ± 0.14.

On to RCNGTL, for which the amyloid nucleation score result was “inactive”.

LKKVCDECRFSESPLVPEVA had an amyloid nucleation score of 1.06 ± 0.13.

In the case of IGYKLNFCASILDFSYCKIY, the amyloid nucleation score came out at 1.07 ± 0.19.

For the substance LFVYHCYIFSMRSRCMSHLY, the amyloid nucleation score result was “inactive”.

Take GILFNK: the amyloid nucleation score result is “inactive”.

Regarding RYGLVVIAVVSAVHDGDACS, the amyloid nucleation score entry is “inactive”.

As for RSCLCEWWDVGSSVSASTLL, the amyloid nucleation score result was “inactive”.

As to YLTNNLFRFLEYR, the amyloid nucleation score entry is “inactive”.

Turning to CYMYVRNGHLEIFLMGLSGF, the amyloid nucleation score entry was “inactive”.

Take VRGLDVCTDEFCVQLDYMW: the amyloid nucleation score entry is “inactive”.

Regarding LNMCLSLVSVLRAVSVYLWT, the amyloid nucleation score result was “inactive”.

For RPMRACRGMEVRGFSSEVSA, the amyloid nucleation score result is “inactive”.

As for FILFRYVTNALRKSAWVRLC, the amyloid nucleation score result was “inactive”.

For VAVVIEYMKLVVLG, the amyloid nucleation score result was “inactive”.

Regarding SKGGADNNWLVIDCPLNRRM, the amyloid nucleation score result is “inactive”.

RSVKVYLRCSLSNCVILLGT came in with an amyloid nucleation score of 2.58 ± 0.049.

Consider GKQIRSNR, for which the amyloid nucleation score result is “inactive”.

As for IKQRDN, the amyloid nucleation score result was “inactive”.

Consider DLVPVIHGIYWAG, for which the amyloid nucleation score result was “inactive”.

With FLIVGFPGNKLGC, the amyloid nucleation score worked out at 0.848 ± 0.1.

Turning to QVNFGRGQRTLVWTGIRCSH, the amyloid nucleation score result was “inactive”.

For LNVLAPFGWLARFIILAIP, the amyloid nucleation score result is “inactive”.

MNNCTDLYLLVNPRIRFGVM: the amyloid nucleation score entry was “inactive”.

In the case of FNNFRFTGQHR, the amyloid nucleation score entry is “inactive”.

Consider LKSSPFNYSVGIS, for which the amyloid nucleation score entry was “inactive”.

Regarding EIKYTDL, the amyloid nucleation score entry is “inactive”.

For EAHGYVR, the amyloid nucleation score result is “inactive”.

Take LGYIQEN: the amyloid nucleation score result is “inactive”.

ISLVLVCYKASVITLWENQW registered an amyloid nucleation score of -0.627 ± 1.4.

For the substance TYYRCSSANLSSGRAEVYKY, the amyloid nucleation score result was “inactive”.

Take LYGLLSCSERVVKLWFWSWV: the amyloid nucleation score result was “inactive”.

For the substance VMYCYWSLIMSDSCNFMCQY, the amyloid nucleation score stood at 2.08 ± 0.058.

As for SWVNDRQNFPASLLYRDYLL, the amyloid nucleation score entry is “inactive”.

AYSFNSFRASGRHLWFTVCP: the amyloid nucleation score result was “inactive”.

Turning to VLGPGIIRTEQVLTVVRTMA, the amyloid nucleation score entry is “inactive”.

In the case of WSDIIVGIRTNCDVLFSGAY, the amyloid nucleation score result was “inactive”.

Turning to ETECVFSDYHSKVNICGGSL, the amyloid nucleation score entry was “inactive”.

For the substance HVYNLLRVVF, the amyloid nucleation score entry was “inactive”.

As for RINMELLWIFGGSTWFINRG, the amyloid nucleation score was 1.93 ± 0.084.

In the case of RLSQCRLLVFDGTQVFMCCV, the amyloid nucleation score is 2.01 ± 0.077.

Consider NHLLFSIPRSIRWKACVQ, for which the amyloid nucleation score entry is “inactive”.

Turning to LVVPGYNLL, the amyloid nucleation score result was “inactive”.

SWDFAYLYELIYFRFMFQGC: the amyloid nucleation score result is “inactive”.

On to MIVNNELCTNLPYLSGAVNR, for which the amyloid nucleation score result is “inactive”.

In the case of FLGFDRVFYGRRISPSFVRT, the amyloid nucleation score entry is “inactive”.

For GRLNVLRRRPVGRTKRCSKV, the amyloid nucleation score result is “inactive”.

As to TTFFGCSFGLCRAIIGLDNV, the amyloid nucleation score stood at 1.34 ± 0.076.

Take IVSMSCGWFRGYRVDDGYM: the amyloid nucleation score amounted to 1.38 ± 0.083.

As to GTLCTETHGT, the amyloid nucleation score result is “inactive”.

As to FKNRYFHLPCSDLLYHSLGR, the amyloid nucleation score result was “inactive”.

For the substance LYKGYYVLMLEWARDKIHSA, the amyloid nucleation score result was “inactive”.

As for RKMMCKWLCNIKGYIIVV, the amyloid nucleation score entry was “inactive”.

On to SGFKG, for which the amyloid nucleation score entry is “inactive”.

For SKNDIQARGSRKKCSNKGAK, the amyloid nucleation score entry was “inactive”.

With NIGRNMLRCVNLTT, the amyloid nucleation score entry was “inactive”.

Consider ISRLR, for which the amyloid nucleation score entry was “inactive”.

In the case of EGHGGTRLSHRA, the amyloid nucleation score entry was “inactive”.

Take DRDSALWIMTVWVRGSHYTR: the amyloid nucleation score result was “inactive”.

For TRLDGHTYMFTL, the amyloid nucleation score result is “inactive”.

Regarding GKFVRLPPISRISHLWNCEL, the amyloid nucleation score entry was “inactive”.

QKLNIAFRWFWWFCTLSCNS: the amyloid nucleation score result was “inactive”.

FSMCCTWYFKFHL registered an amyloid nucleation score of 0.596 ± 0.14.

On to NSGHLVLGCMYIFSNGFVDR, for which the amyloid nucleation score is 1.22 ± 0.14.

For SIMLFWVTGRLLRLSLLMLL, the amyloid nucleation score worked out at 0.45 ± 0.21.

The substance TILGDFVFVFILKVCFTYHR returned an amyloid nucleation score of -0.806 ± 1.3.

For the substance DMLFDQGLSCNGLI, the amyloid nucleation score entry is “inactive”.

LIYLYWGLFVTSNSLETCR had an amyloid nucleation score of 1.4 ± 0.086.

With CTFDWVLITLVEGSRAIW, the amyloid nucleation score entry was “inactive”.

As to YCGKCRAFCCQSCPIRVRLV, the amyloid nucleation score entry was “inactive”.

MRTINIS: the amyloid nucleation score entry was “inactive”.

SPDGIGTMRGNFLGTPWRCR: the amyloid nucleation score entry was “inactive”.

On to NPFMW, for which the amyloid nucleation score result is “inactive”.

VSTHVLHPYTYT: the amyloid nucleation score result was “inactive”.

Turning to LSDAR, the amyloid nucleation score entry was “inactive”.

Turning to RFGSVCPDL, the amyloid nucleation score result is “inactive”.

RRPVYIIASNLDYMQTSCIT: the amyloid nucleation score entry was “inactive”.

Turning to HRELRVTVHQKFNLRMRVSD, the amyloid nucleation score result was “inactive”.

In turn, LPFIRV displayed an amyloid nucleation score of 0.007 ± 0.27.

With PPTLQMVTVVGPKGWKVMFS, the amyloid nucleation score entry was “inactive”.

As for HFGQCSVMMCDAWGMSDQGP, the amyloid nucleation score entry is “inactive”.

YRTDDERCDMTTVLYSYMEY: the amyloid nucleation score result is “inactive”.

As for SDKRQLRDR, the amyloid nucleation score entry was “inactive”.

Turning to NQGWTCWCVSCCLGVKIVMI, the amyloid nucleation score entry is “inactive”.

On to ECVFIKFWVEGWKTLWSWSA, for which the amyloid nucleation score result is “inactive”.

Substance RARLHSVAINDVHSFTVSLG came in with an amyloid nucleation score of 0.004 ± 0.39.

Take VKEPPTCVTCSAHSIRSGYS: the amyloid nucleation score result is “inactive”.

Turning to SFSSRRHYNLLPFRWFFRRN, the amyloid nucleation score result was “inactive”.

Turning to IFEVYDVIT, the amyloid nucleation score entry was “inactive”.

With YYFTFFIKCMRNIMVNSMAA, the amyloid nucleation score result was “inactive”.

GQSVMQSAMGSISKFE: the amyloid nucleation score result is “inactive”.

As for VSVIWSMMCIRIITISCGRV, the amyloid nucleation score entry was “inactive”.

The record behind these values is the supplement of paper PMC12042874.
